Among the data in the supplement of paper PMC10724198 are protein stability index values, retold here.

The subject of this data set is Saccharomyces cerevisiae. Nature of the data set: protein stability index of tFT-peptide fusion (C-terminal peptide) (PSI (0-1 scale)); higher = more stable (slower turnover). The settings on record: temperature: 30 C. The method, then:
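MPS profiling in S. cerevisiae of the yeast C-terminome library: the last 12 aa of each annotated ORF are fused to the C-terminus of a sfGFP-mCherry timer, after a GGGS linker. Cells are FACS-sorted into 8 mCherry/sfGFP bins and deep-sequenced. PSI runs from 0 (unstable) to 1 (stable); wild type and das1Δ backgrounds, two technical replicates each.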

Where [1] appears, read: genetic background: das1 deletion.

± gives the standard deviation of the averaged measurements.

Sequence “IKKRKVQNRAMS [YOL038C-A C-terminal 12 aa]” returned a protein stability index under setting [1] of 0.701 ± 0.017 and a protein stability index (genetic background: wild type) of 0.73 ± 0.0083.
The matching figures for IKTDSVHELLKK [MFM1 C-terminal 12 aa]: 0.704 ± 0.018 and 0.696 ± 0.0083.
As to ILGNYRDIFKQA [RGA2 C-terminal 12 aa], the protein stability index came out at 0.726 ± 0.014 under setting [1] and 0.266 ± 0.077 (genetic background: wild type).
For ILISTIYAHCSS [HFD1 C-terminal 12 aa], the protein stability index is, setting by setting: under setting [1], 0.577 ± 0.0076; (genetic background: wild type) 0.489 ± 0.015.
For ILLTPNNHGEMK [BDH1 C-terminal 12 aa], the protein stability index by setting is: under setting [1], 0.689 ± 0.03; (genetic background: wild type) 0.684 ± 0.011.
ILPIHQEDPANR [MEP1 C-terminal 12 aa] showed a protein stability index under setting [1] of 0.701 ± 0.011 and a protein stability index (genetic background: wild type) of 0.686 ± 0.042.
On to ILTAEKMRGNGN [RRP4 C-terminal 12 aa], for which the protein stability index reads like this: under setting [1], 0.686 ± 0.033; (genetic background: wild type) 0.677 ± 0.027.
On the same counts, the results for INFHSGSIFDAC [ENV11 C-terminal 12 aa] are 0.717 ± 0.029 and 0.7009 ± 0.0015.
Consider INKDMTKKKMKF [MFG1 C-terminal 12 aa], for which the protein stability index is 0.689 ± 0.029 under setting [1] and 0.677 ± 0.029 (genetic background: wild type).
IPKIPKIVNGFK [DCS1 C-terminal 12 aa]: the protein stability index runs as follows: under setting [1], 0.694 ± 0.012; (genetic background: wild type) 0.6501 ± 0.0018.
As for IQAKLKISVHDI [BEM1 C-terminal 12 aa], the protein stability index by setting is: under setting [1], 0.674 ± 0.0062; (genetic background: wild type) 0.681 ± 0.0069.
On the same counts, the results for IQKLNKVLEDSI [ATP5 C-terminal 12 aa] are 0.6748 ± 0.0023 and 0.675 ± 0.02.
Regarding IRAAGGVVELIA [RPL28 C-terminal 12 aa], the protein stability index was determined as 0.658 ± 0.0023 under setting [1] and 0.652 ± 0.038 (genetic background: wild type).
On the same counts, the results for IREFLEEIVDTQ [SUS1 C-terminal 12 aa] are 0.725 ± 0.081 and 0.728 ± 0.091.
In the case of ISISHSAVPNIV [YAL069W C-terminal 12 aa], the protein stability index turned out to be 0.678 ± 0.0075 under setting [1] and 0.729 ± 0.037 (genetic background: wild type).
For ISLVFLWVSIEV [CSM4 C-terminal 12 aa], the protein stability index was 0.157 ± 0.018 under setting [1] and 0.173 ± 0.011 (genetic background: wild type).
ISVYCGTTLEVM [TFC8 C-terminal 12 aa] showed a protein stability index under setting [1] of 0.44 ± 0.016 and a protein stability index (genetic background: wild type) of 0.469 ± 0.013.
On the same counts, the results for ITEVNVSLEEKL [FHL1 C-terminal 12 aa] are 0.6842 ± 0.0013 and 0.7078 ± 0.0013.
ITQARANTWLVV [YOR024W C-terminal 12 aa]: the protein stability index under setting [1] is 0.654 ± 0.02 and the protein stability index (genetic background: wild type) is 0.648 ± 0.0088.
Turning to ITRDESTATYKY [RTT101 C-terminal 12 aa], the protein stability index by setting is: under setting [1], 0.695 ± 0.0095; (genetic background: wild type) 0.6686 ± 0.0022.
As for “ITRTRLDSFVKT [YBR072C-A C-terminal 12 aa]”, the protein stability index is, setting by setting: under setting [1], 0.696 ± 0.038; (genetic background: wild type) 0.6292 ± 0.0014.
As to ITTKRSLCSSKD [PEX25 C-terminal 12 aa], the protein stability index amounted to 0.673 ± 0.015 under setting [1] and 0.695 ± 0.02 (genetic background: wild type).
For IVTEWVKKPCLC [MUP3 C-terminal 12 aa], the protein stability index runs as follows: under setting [1], 0.546 ± 0.013; (genetic background: wild type) 0.489 ± 0.01.
As for “IYQPSRNRLVRY [YBR076C-A C-terminal 12 aa]”, the protein stability index runs as follows: under setting [1], 0.707 ± 0.025; (genetic background: wild type) 0.7018 ± 0.0025.
On the same counts, the results for KAFVEKLNSKKD [YBT1 C-terminal 12 aa] are 0.707 ± 0.026 and 0.683 ± 0.011.
As to KAIEYFEEYQCW [FRE2 C-terminal 12 aa], the protein stability index reads like this: under setting [1], 0.722 ± 0.048; (genetic background: wild type) 0.704 ± 0.052.
The matching figures for KAQRSIWGKKSQ [ERV46 C-terminal 12 aa]: 0.6703 ± 0.0035 and 0.682 ± 0.018.
For the sequence KDDTPEDNLEDK [VBA5 C-terminal 12 aa], the protein stability index under setting [1] came out at 0.6969 ± 0.0021 and the protein stability index (genetic background: wild type) came out at 0.71 ± 0.0088.
For the sequence KDNSVGKILNST [BOP3 C-terminal 12 aa], the protein stability index under setting [1] amounted to 0.667 ± 0.018 and the protein stability index (genetic background: wild type) stood at 0.71 ± 0.026.
On the same counts, the results for KDSELNIKSSKL [STR3 C-terminal 12 aa] are 0.78159 ± 0.00043 and 0.79 ± 0.053.
The matching figures for KEDPDLRQSYQG [MGS1 C-terminal 12 aa]: 0.693 ± 0.016 and 0.649 ± 0.0099.
KEESGTTSLPTI [GGA1 C-terminal 12 aa]: the protein stability index is, setting by setting: under setting [1], 0.723 ± 0.02; (genetic background: wild type) 0.704 ± 0.011.
In the case of KESPANDQASNE [MLP2 C-terminal 12 aa], the protein stability index reads like this: under setting [1], 0.688 ± 0.0091; (genetic background: wild type) 0.677 ± 0.032.
The matching figures for KETFIQVWEKQE [SAD1 C-terminal 12 aa]: 0.663 ± 0.0072 and 0.651 ± 0.019.
Turning to KFFNYDGSEGVF [OSI1 C-terminal 12 aa], the protein stability index by setting is: under setting [1], 0.7095 ± 0.0039; (genetic background: wild type) 0.715 ± 0.022.
KGAFQKVAATSR [RPL24A C-terminal 12 aa]: the protein stability index was 0.7102 ± 0.0065 under setting [1] and 0.685 ± 0.0079 (genetic background: wild type).
In the case of KGISIVESTFIS [YDR222W C-terminal 12 aa], the protein stability index runs as follows: under setting [1], 0.704 ± 0.027; (genetic background: wild type) 0.673 ± 0.022.
As for KGKSFILDSSKL [MDH3 C-terminal 12 aa], the protein stability index was 0.77184 ± 0.00047 under setting [1] and 0.733 ± 0.039 (genetic background: wild type).
As for KGLVIVKDAIIL [PFF1 C-terminal 12 aa], the protein stability index runs as follows: under setting [1], 0.678 ± 0.027; (genetic background: wild type) 0.697 ± 0.01.
On the same counts, the results for KGNSMVVHGAQS [SHE3 C-terminal 12 aa] are 0.687 ± 0.026 and 0.6853 ± 0.0059.
The matching figures for KIKKIVLKRSFD [NMD2 C-terminal 12 aa]: 0.7019 ± 0.0021 and 0.654 ± 0.022.
As for KISKSELEGVPS [MTC6 C-terminal 12 aa], the protein stability index stood at 0.722 ± 0.019 under setting [1] and 0.714 ± 0.045 (genetic background: wild type).
For the sequence KITEKWTHKDFK [NOP53 C-terminal 12 aa], the protein stability index is, setting by setting: under setting [1], 0.688 ± 0.027; (genetic background: wild type) 0.719 ± 0.058.
In turn, “KITVSNLTNQQI [YCL001W-B C-terminal 12 aa]” had a protein stability index under setting [1] of 0.6746 ± 0.0032 and a protein stability index (genetic background: wild type) of 0.684 ± 0.04.
KIVIPDKFIQHI [HRD1 C-terminal 12 aa]: the protein stability index under setting [1] came to 0.673 ± 0.025 and the protein stability index (genetic background: wild type) was determined as 0.706 ± 0.028.
For KKAPYFLPAPHT [FMO1 C-terminal 12 aa], the protein stability index is, setting by setting: under setting [1], 0.7 ± 0.012; (genetic background: wild type) 0.715 ± 0.0093.
As to KKEKISKYVSKS [OPI11 C-terminal 12 aa], the protein stability index by setting is: under setting [1], 0.725 ± 0.0098; (genetic background: wild type) 0.683 ± 0.035.
With KKEPGANCCIIL [RHO2 C-terminal 12 aa], the protein stability index worked out at 0.743 ± 0.02 under setting [1] and 0.72 ± 0.021 (genetic background: wild type).
The sequence KKIVIIYVVRFH [BSC4 C-terminal 12 aa] showed a protein stability index under setting [1] of 0.304 ± 0.015 and a protein stability index (genetic background: wild type) of 0.339 ± 0.01.
KKKAINEKAEQN [SEC62 C-terminal 12 aa]: the protein stability index under setting [1] worked out at 0.679 ± 0.018 and the protein stability index (genetic background: wild type) turned out to be 0.635 ± 0.02.
As to KKKKSLFLFGKI [YOR019W C-terminal 12 aa], the protein stability index reads like this: under setting [1], 0.702 ± 0.039; (genetic background: wild type) 0.6688 ± 0.0015.
Turning to KKKYKFHQGLSI [SOL2 C-terminal 12 aa], the protein stability index reads like this: under setting [1], 0.699 ± 0.028; (genetic background: wild type) 0.695 ± 0.02.
On to KKLSNDGETQAN [DMO2 C-terminal 12 aa], for which the protein stability index came to 0.681 ± 0.013 under setting [1] and 0.655 ± 0.011 (genetic background: wild type).
With KKRISEKQHFIE [AMF1 C-terminal 12 aa], the protein stability index worked out at 0.689 ± 0.038 under setting [1] and 0.633 ± 0.016 (genetic background: wild type).
The matching figures for KKRNWKRREASS [NRG2 C-terminal 12 aa]: 0.698 ± 0.016 and 0.626 ± 0.044.
The matching figures for KKRRIHPTPVDL [CAC2 C-terminal 12 aa]: 0.6974 ± 0.0037 and 0.724 ± 0.027.
As for KKVLLQAKQYSK [UBC9 C-terminal 12 aa], the protein stability index runs as follows: under setting [1], 0.678 ± 0.017; (genetic background: wild type) 0.682 ± 0.031.
In the case of KLEKKQSERSTH [STE7 C-terminal 12 aa], the protein stability index turned out to be 0.7002 ± 0.0013 under setting [1] and 0.769 ± 0.067 (genetic background: wild type).
KLFESGQDSFDN [MRC1 C-terminal 12 aa]: the protein stability index by setting is: under setting [1], 0.7192 ± 0.0032; (genetic background: wild type) 0.727 ± 0.022.
As to KLGEAEVQGLIM [YDR340W C-terminal 12 aa], the protein stability index reads like this: under setting [1], 0.721 ± 0.0023; (genetic background: wild type) 0.688 ± 0.0056.
Consider KLGSYLRDYLRK [GLO3 C-terminal 12 aa], for which the protein stability index came out at 0.707 ± 0.0072 under setting [1] and 0.689 ± 0.0095 (genetic background: wild type).
Turning to KMFAKYRENSRI [DYN3 C-terminal 12 aa], the protein stability index reads like this: under setting [1], 0.692 ± 0.017; (genetic background: wild type) 0.667 ± 0.0047.
As to KMLWQGITDYYI [YOL163W C-terminal 12 aa], the protein stability index reads like this: under setting [1], 0.7357 ± 0.0031; (genetic background: wild type) 0.717 ± 0.021.
Regarding “KMQGKYIKKKAM [YNR001W-A C-terminal 12 aa]”, the protein stability index under setting [1] is 0.7139 ± 0.0039 and the protein stability index (genetic background: wild type) amounted to 0.385 ± 0.024.
For the sequence “KNDKIHLFMYCT [YBR103C-A C-terminal 12 aa]”, the protein stability index by setting is: under setting [1], 0.54 ± 0.022; (genetic background: wild type) 0.536 ± 0.0038.
For the sequence KNGYGNSNASWW [DBP1 C-terminal 12 aa], the protein stability index runs as follows: under setting [1], 0.717 ± 0.031; (genetic background: wild type) 0.691 ± 0.027.
Regarding KNNEVLLHKIKI [FAR8 C-terminal 12 aa], the protein stability index runs as follows: under setting [1], 0.715 ± 0.015; (genetic background: wild type) 0.669 ± 0.056.
